Measured values from patent US20230287454.

Key:
Test in all cases: cell_activity
[1] = biological target: CD38 TALEN Left (synthetic construct) (UniProt Q56830); settings: CD38-negative T cells, paired with CD38 right, simultaneous electroporation
[2] = biological target: CD38 TALEN Right (synthetic construct) (UniProt Q56830); settings: CD38-negative T cells, paired with CD38 left, simultaneous electroporation
[3] = system: CD52 TALEN Left (synthetic construct); settings: CD52-negative T cells, paired with CD52 right, simultaneous electroporation
[4] = biological target: CD52 TALEN Right (synthetic construct) (UniProt Q56830); settings: CD52-negative T cells, paired with CD52 left, simultaneous electroporation
[5] = biological target: TRAC TALEN Left (synthetic construct) (UniProt Q56830); settings: TCR-negative T cells, paired with TRAC right, simultaneous electroporation with CD38 and CD52 TALEN
[6] = biological target: TRAC TALEN Right (synthetic construct) (UniProt Q56830); settings: TCR-negative T cells, paired with TRAC left, simultaneous electroporation

CD38 left half-site
activity [1]: 66.1%

CD38 right half-site
activity [2]: 66.1%

CD52 left half-site
activity [3]: 57%

CD52 right half-site
activity [4]: 57%

TRAC left half-site
activity [5]: 67.8%

TRAC right half-site
activity [6]: 67.8%
